Square brackets hold non-standard residues; d marks the D form. Ends that are not written are not given here. pT = C[C@@H](OP(=O)(O)O)[C@H](N)C(=O)O; pS = N[C@@H](COP(=O)(O)O)C(=O)O

In one experiment the target is β-arrestin2 R394A (UniProt P29067 1-410, R394A). In words: ITC. Background: ITC needs no label: the signal is the heat of the interaction.
A further experiment deals with β-arrestin2 R166A (UniProt P29067 1-410, R166A). In words: ITC.
Chain of β-arrestin2 R166A (P29067 whole entry R166A): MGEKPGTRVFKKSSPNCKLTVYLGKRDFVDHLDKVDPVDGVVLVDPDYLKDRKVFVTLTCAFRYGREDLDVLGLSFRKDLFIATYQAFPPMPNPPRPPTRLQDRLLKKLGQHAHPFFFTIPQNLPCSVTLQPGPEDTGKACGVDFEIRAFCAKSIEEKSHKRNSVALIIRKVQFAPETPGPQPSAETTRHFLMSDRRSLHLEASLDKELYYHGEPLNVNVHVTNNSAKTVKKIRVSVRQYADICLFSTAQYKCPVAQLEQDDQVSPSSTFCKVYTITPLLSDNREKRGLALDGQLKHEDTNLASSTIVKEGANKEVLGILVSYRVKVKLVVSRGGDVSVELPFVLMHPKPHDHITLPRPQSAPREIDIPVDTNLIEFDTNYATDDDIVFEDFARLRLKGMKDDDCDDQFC

Chain of β-arrestin2 R394A (P29067 whole entry R394A): as the sequence (P29067 whole entry R166A) above, with A166R, R394A counted along it

The Kd is the equilibrium constant for the complex coming apart. ASRV[pS]E[pT]EY[pS]ALEQ [C7pp2, phosphopeptide derived from the carboxyl terminus of CXCR7 (residues 346-359)]: the values for the Kd with β-arrestin2 R394A and in the experiment with β-arrestin2 R166A were 1.1 µM and 16.4 µM, respectively.

Values taken from article doi:10.1101/2025.01.05.631353 (bioRxiv, 2025).
